In patent US20210179728A1:

Experiments:
[1] = molecular target: SIRPa on human monocytes (human) (UniProt P78324); test: flow cytometry on human monocytes v1/v1, PE anti-human Fc; MFI [B, panel B table]
[2] = molecular target: SIRPa on human monocytes (human) (UniProt P78324); test: flow cytometry on human monocytes v1/v1, PE anti-human Fc; percent of stained monocytes [B, panel A table]

B1: HALA (antibody, human IgG4 S228P, kappa, V domains shown)
VH: EVQLVQSGAEVKKPGESLRISCKASGYTFTSYWVHWVRQMPGKGLEWIGNIDPSDSDTHYNQKFKDHVTLSVDKSISTAYLQLSSLKASDTAMYYCVRGGTGTMAWFAYWGQGTLVTVSS
VL: DVVMTQSPLSLPVTLGQPASISCRSSQSLVHSYGNTYLYWYQQRPGQSPRLLIYRVSNRFSGVPDRFSGSGSGTDFTLKISRVEAEDVGVYFCFQGTHVPYTFGGGTKVEIKR
[1]
  EC50: 0.59 µg/mL
[2]
  EC50: 0.242 µg/mL
